According to patent US12697371B2, “Method for preventing, treating or delaying myocardial damage using neuregulin and composition” (ZENSUN (SHANGHAI) SCIENCE & TECHNOLOGY, CO., LTD., priority 2019, dated 2026):
Entries after “also recorded” stand apart in the source; their conditions may differ.

Tests used:
[1] = tested on: rats with acute myocardial infarction caused by left coronary artery ligation; test: Echocardiography, rat acute myocardial infarction (left coronary artery ligation), 60-day subcutaneous NRG at different doses (Example 1); type: in vivo, Wistar rats; conditions: for EF / LVEDd / LVEDs: 3 times a day
Source text: 5.1 Establishment of a Rat Model of Heart Failure Caused by Coronary Artery Ligation
The rats were anesthetized with isoflurane through a gaseous anesthesia apparatus. Then, the rats were fixed in a supine position. After chest hair removal, the skin was disinfected with 75% alcohol. After the incision of the left anterior chest skin, the thoracic muscles were bluntly separated, with the 4th and 5th ribs exposed. Hemostatic forceps were used to bluntly cut off the muscle between the 4th and 5th ribs. Both hands were used to squeeze the heart out of the thoracic cavity so that the heart should be fully exposed for observation of lung inflation and heartbeats. The left atrial appendage and pulmonary conus were fully exposed to ligate the left anterior descending coronary artery (LADCA) with surgical suture between them. […] Then, the thoracic muscles and skin were sutured. After surgery, the rats were put back into the cages for feeding and close observations.
Administration began on the day following the animal model establishment of myocardial infarction.
(§1) After being anesthetized with 4% isoflurane, the rats were fixed onto the operating board in the left lateral recumbent position. The head of the rats was fixed in the breathing mask of the gaseous anesthesia machine, with isoflurane used for maintenance of anesthesia. After chest hair removal, the skin was disinfected with 75% alcohol and coated with a coupling agent. An echocardiography probe was used to detect any echo signal from the left ventricle of the rats. The left ventricular end-diastolic diameter and left ventricular end-systolic diameter (D) were measured. The left ventricular end-diastolic volume (EDV) and end-systolic volume (ESV) were calculated. Also, the ejection fraction (EF) value was found, EF=(EDV−ESV)/EDV*100%.

[2] = tested on: rats with acute myocardial infarction caused by left coronary artery ligation; test: Echocardiography, rat acute myocardial infarction, long-term subcutaneous NRG at different frequencies (Example 2); type: in vivo, Wistar rats
Experimental: Established in the same way as the rat model of heart failure caused by coronary artery ligation in 5.1, Embodiment 1
All the experimental animals were randomly divided into groups upon coronary artery ligation. According to post-ligation survival, the rats were randomly divided into 4 groups by body weight: the excipient group (control group), the NRG30 μg/kgDay group, the NRG30 μg/kg/BlW group and the NRG30 μgkgDay*7+QW group. Administration began on the day following the animal model establishment of myocardial infarction. For the first three groups and for the fourth group on the first 7 days, the rats were given subcutaneous injection 3 times a day and weighed once a day. They took medicine by weight and the dose was 30 μg/kg/day. For the fourth group in the last four weeks, the rats were injected with NRG on one day per week, and the daily dose was 30 μg/kg.
as §1, with “[…]. The cardiac function of the rats was performed by echocardiography in the 1st, 2nd, 3rd and 5th weeks after the occurrence of myocardial infarction.” for “EF=(EDV−ESV)/EDV*100%.”

[3] = 30 μg/kg/Day sc, after 35 days of continuous administration
[4] = DAY 8, 30 μg/kg BIW sc, 3 times a day, 2 days a week × 5 weeks
[5] = DAY 8, 30 μg/kg Day*7 + QW sc, 3 times a day × 7 days, then 1 day/week × 4 weeks
[6] = DAY 8, 30 μg/kg/Day sc, 3 times a day × 35 days
[7] = DAY 15, 30 μg/kg BIW sc, 3 times a day, 2 days a week × 5 weeks
[8] = DAY 15, 30 μg/kg Day*7 + QW sc, 3 times a day × 7 days, then 1 day/week × 4 weeks
[9] = DAY 15, 30 μg/kg/Day sc, 3 times a day × 35 days
[10] = DAY 22, 30 μg/kg BIW sc, 3 times a day, 2 days a week × 5 weeks
[11] = DAY 22, 30 μg/kg Day*7 + QW sc, 3 times a day × 7 days, then 1 day/week × 4 weeks
[12] = DAY 22, 30 μg/kg/Day sc, 3 times a day × 35 days
[13] = DAY 36, 30 μg/kg BIW sc, 3 times a day, 2 days a week × 5 weeks
[14] = DAY 36, 30 μg/kg Day*7 + QW sc, 3 times a day × 7 days, then 1 day/week × 4 weeks
[15] = DAY 36, 30 μg/kg/Day sc, 3 times a day × 35 days

B1: NRG: fragment of the NRG-1β2 isomer, 177-237 amino acid fragment containing an EGF-like domain (SEQ ID NO: 1); developed by Zensun (protein, listed as Homo sapiens)
chain: SHLVKCAEKEKTFCVNGGECFMVKDLSNPSRYLCKCPNEFTGDRCQNYVMASFYKAEELYQ
In the case of B1, the EF ([1]; DAY 20, 3.75 μg/kg/D sc) is reported as 39.7 ± 10.84%, the LVEDd ([1]; DAY 20, 3.75 μg/kg/D sc) is reported as 0.937 ± 0.06 cm and the LVEDs ([1]; DAY 20, 3.75 μg/kg/D sc) is reported as 0.777 ± 0.08 cm. It also gave an EF ([1]; DAY 20, 7.5 μg/kg/D sc) of 41.9 ± 15.17%, an LVEDd ([1]; DAY 20, 7.5 μg/kg/D sc) of 0.924 ± 0.05 cm and an LVEDs ([1]; DAY 20, 7.5 μg/kg/D sc) of 0.756 ± 0.08 cm. The EF ([1]; DAY 20, 15 μg/kg/D sc) was 40.6 ± 9.15%, the LVEDd ([1]; DAY 20, 15 μg/kg/D sc) was 0.908 ± 0.05 cm and the LVEDs ([1]; DAY 20, 15 μg/kg/D sc) was 0.759 ± 0.08 cm. For the same molecule, the EF ([1]; DAY 40, 3.75 μg/kg/D sc) was 40.4 ± 12.86%, the LVEDd ([1]; DAY 40, 3.75 μg/kg/D sc) was 0.982 ± 0.09 cm and the LVEDs ([1]; DAY 40, 3.75 μg/kg/D sc) was 0.813 ± 0.13 cm. The EF ([1]; DAY 40, 7.5 μg/kg/D sc) was 40.5 ± 13.39%, the LVEDd ([1]; DAY 40, 7.5 μg/kg/D sc) was 0.946 ± 0.08 cm and the LVEDs ([1]; DAY 40, 7.5 μg/kg/D sc) was 0.782 ± 0.12 cm. It also gave an EF ([1]; DAY 40, 15 μg/kg/D sc) of 42.2 ± 11.27%, an LVEDd ([1]; DAY 40, 15 μg/kg/D sc) of 0.946 ± 0.08 cm and an LVEDs ([1]; DAY 40, 15 μg/kg/D sc) of 0.775 ± 0.11 cm. For the same molecule, the EF ([1]; DAY 60, 3.75 μg/kg/D sc) was 37.0±12.23%, the LVEDd ([1]; DAY 60, 3.75 μg/kg/D sc) was 0.994±0.08 cm and the LVEDs ([1]; DAY 60, 3.75 μg/kg/D sc) was 0.839±0.12 cm. The EF ([1]; DAY 60, 7.5 μg/kg/D sc) was 38.4±12.17%, the LVEDd ([1]; DAY 60, 7.5 μg/kg/D sc) was 0.965±0.07 cm and the LVEDs ([1]; DAY 60, 7.5 μg/kg/D sc) was 0.808±0.11 cm. It also gave an EF ([1]; DAY 60, 15 μg/kg/D sc) of 42.9±11.32%, an LVEDd ([1]; DAY 60, 15 μg/kg/D sc) of 0.975±0.07 cm and an LVEDs ([1]; DAY 60, 15 μg/kg/D sc) of 0.794±0.10 cm. The “Cardiac function / EF value compared with the control group” value ([1]; high-, middle- and low-dose groups (15, 7.5, 3.75 μg/kg/D sc), after 60 days of continuous administration) was “all improved; also recorded: higher than that of the control group”, the “LVEDd and LVEDs compared with the excipient group” value ([1]; high-dose group (15 μg/kg/D sc), 60 days) was “could be reduced” and the “EF value compared with the control group” value ([2]; 30 μg/kg/BIW sc, after 35 days) was “rising trend”. For the same molecule, the “EF value compared with the control group” value [2, 3] was “significantly higher”, the “LVEDd and LVEDs compared with the control group” value [2, 3] was “significantly reduce” and the “Cardiac function compared with the control group” value ([2]; 30 μg/kg/Day*7+QW sc, first 7 days of continuous administration) was “improved to some extent”. The EF [2, 4] was 50.9 ± 8.958%, the LVEDd [2, 4] was 0.809 ± 0.045 cm and the LVEDs [2, 4] was 0.625 ± 0.068 cm. It also gave an EF [2, 5] of 50.9 ± 7.337%, an LVEDd [2, 5] of 0.785 ± 0.045 cm and an LVEDs [2, 5] of 0.607 ± 0.061 cm. It also gave an EF [2, 6] of 52.2 ± 7.802%, an LVEDd [2, 6] of 0.785 ± 0.046 cm and an LVEDs [2, 6] of 0.601 ± 0.063 cm. It also gave an EF [2, 7] of 48.9 ± 9.893%, an LVEDd [2, 7] of 0.856 ± 0.065 cm and an LVEDs [2, 7] of 0.671 ± 0.091 cm. The EF [2, 8] was 47.1 ± 8.344%, the LVEDd [2, 8] was 0.864 ± 0.054 cm and the LVEDs [2, 8] was 0.686 ± 0.074 cm. For the same molecule, the EF [2, 9] was 50.3 ± 8.49%, the LVEDd [2, 9] was 0.832 ± 0.054 cm and the LVEDs [2, 9] was 0.646 ± 0.075 cm. The EF [2, 10] was 47.1 ± 10.427%, the LVEDd [2, 10] was 0.896 ± 0.074 cm and the LVEDs [2, 10] was 0.711 ± 0.102 cm. It also gave an EF [2, 11] of 44.7 ± 8.434%, an LVEDd [2, 11] of 0.905 ± 0.062 cm and an LVEDs [2, 11] of 0.729 ± 0.08 cm. The EF [2, 12] was 49.5 ± 7.897%, the LVEDd [2, 12] was 0.859 ± 0.057 cm and the LVEDs [2, 12] was 0.670 ± 0.069 cm. The EF [2, 13] was 45.2 ± 10.248%, the LVEDd [2, 13] was 0.928±0.084 cm and the LVEDs [2, 13] was 0.746 ± 0.110 cm. It also gave an EF [2, 14] of 42.7±9.892%, an LVEDd [2, 14] of 0.931±0.070 cm and an LVEDs [2, 14] of 0.76 ± 0.097 cm. It also gave an EF [2, 15] of 47.9±8.342%, an LVEDd [2, 15] of 0.879±0.058 cm and an LVEDs [2, 15] of 0.694±0.077 cm.
